# Measurements from patent publication US20250382354A1 (INSTITUTE FOR RESEARCH IN BIOMEDICINE IRB, published 2025).
# Legend:
# [1] = target: HKU24 HR2 peptide (HKU24); assay: peptide ELISA
# [2] = target: Rosettus HR2 peptide (Rosettus); assay: peptide ELISA
# [3] = target: C-terminally truncated SARS-CoV-2 S protein (pSARS-CoV2-Strunc), ancestral (SARS-CoV-2, UniProt P0DTC2 14-1273); assay: cell-based or functional assay
# [4] = target: SARS-CoV-2 SD1-RBD Ancestral (SARS-CoV-2 (ancestral), UniProt P0DTC2 319-591); assay: SPR, antigen immobilized, Fab injected
# [5] = target: Erinaceus HR2 peptide (Erinaceus); assay: peptide ELISA
# [6] = target: T1, CRCoV-240/05 HR2 peptide (CRCoV-240/05); assay: peptide ELISA
# T1 construct: domain: HR2 peptide
# [7] = target: Eidolon HR2 peptide (Eidolon); assay: peptide ELISA
# [8] = target: HKU24 HR2 peptide (HKU24); assay: peptide ELISA; remark: listed apart in the source
# [9] = target: C-terminally truncated SARS-CoV-2 S protein (pSARS-CoV2-Strunc), ancestral (SARS-CoV-2, UniProt P0DTC2 14-1273); assay: cell-based or functional assay; remark: listed apart in the source
binder,measurement,setting,value
"hr2.094 (antibody, V domains shown) VH: EVQLVESGGGLVQPGGSLRLSCAASGFTFSTFWMTWVRQAPGKGLEWVANIKSDGSEKYYVDSVKGRFTISRDNAKNSLYLQMNSLRAEDTAVYYCATWFGLHWGQGTLVTVSS VL: DIVMTQSPDSLAVSLGERASINCKSSQTVLYSSNNKNYLAWYQQKPGQPPKLLIHWASTRDSGVPDRFSGSGSGTDFTLTISSLQAEDVAVYYCQQYHRIPWTFGRGTKVEIK",EC50,[1],0.012 µg/mL
same,EC50,[2],0.656 µg/mL
same,Ancestral Pseudovirus IC50,[3],2.95 µg/mL
"sd1.040 Fab (Fab, V domains shown) VH: QVQLVQSGAEVKKPGASVKVSCKASGYTFTSFYIHWVRQAPGQGLEWMGIIDPSGGSTSYPQKFQGRVTMTRDTSTSTVYMDLSSLRSEDTAVYYCTRDGSAGDNSWFDPWGQGTLVTVSS VL: not shown",Kd,[4],4.2 nM
"hr2.014 (antibody, V domains shown) VH: QVQLVQSGAEVKKPGASVKVSCKASGYTFTTYAVHWLRQVPGQRPEWIGWINAANGNTKYSEKFQGRVTITRDTSASTAYMDLRSLRSEDTAVYYCARLLVVRDDPYYYGMDVWGQGTTVTVSS VL: not shown",EC50,[5],0.117 µg/mL
same,Ancestral Pseudovirus IC50,[3],0.355 µg/mL
"CV3-25 (antibody, V domains shown) VH: QVQLVESGAEVKKPGESLKISCKGSGYTFTRYWIGWVRQMPGKGLEWMGIIYPGDSDTRYSPSFQGHVTISADKSISTAYLQWNSLKASDTAMYYCARLPQYCSNGVCQRWFDPWGQGTLVTVSS VL: EIVLTQSPSSVSASVGDRVTITCRASQGISSWLAWYQQKPGKAPKLLIYAASSLQSGVPSRFSGSGSGTDFTLTISSLQPEDFATYYCQQGNSFPYTFGQGTNLEIK",EC50,[6],1.92 µg/mL
same,EC50,[7],0.0351 µg/mL
same,EC50,[8],0.0521 µg/mL
same,Ancestral Pseudovirus IC50,[9],0.223 µg/mL
same,Ancestral Pseudovirus IC50 (on cells with [not given]),[9],0.375 µg/mL
